Measured values from patent publication US12570711B2, “Platforms for co-stimulation, novel car designs and other enhancements for adoptive cellular therapy” (Angeles Therapeutics, Inc., priority 2017, dated 2026).
Values belong to the molecule of their own block, whether it stands above or below them.

Legend:
RAJI-Luc cells = assay: NSG mice xenografted with RAJI-Luc cells, CD19-CAR T cells with FKBP-fusion modules, with or without AP20187; assay type: in vivo, mouse; conditions: AP20187 40 μg every day for 10 days intraperitoneal
Method: T cells expressing the CAR and these accessory modules are tested using in vitro assays in the absence and presence of the dimerizer AP20187 (100 nM). […] Half the mice in each group (n =6) are administered 40 μg of AP20187 every day for 10 days by intraperitoneal injection as described previously (Chinnery et al, J Immunol 2009; 182:2738-2744).

human MPL [1] = target: T1, human MPL (Homo sapiens, UniProt P40238); assay: Jurkat-NFAT-EGFP (J-N-G) reporter: EGFP induction upon co-culture with HEL cells; assay type: cell-based; conditions: 4 h
T1 construct: endogenous in cells; host or cells: HEL-92.1.7 (HEL) cells
T1 sequence (P40238 26-635): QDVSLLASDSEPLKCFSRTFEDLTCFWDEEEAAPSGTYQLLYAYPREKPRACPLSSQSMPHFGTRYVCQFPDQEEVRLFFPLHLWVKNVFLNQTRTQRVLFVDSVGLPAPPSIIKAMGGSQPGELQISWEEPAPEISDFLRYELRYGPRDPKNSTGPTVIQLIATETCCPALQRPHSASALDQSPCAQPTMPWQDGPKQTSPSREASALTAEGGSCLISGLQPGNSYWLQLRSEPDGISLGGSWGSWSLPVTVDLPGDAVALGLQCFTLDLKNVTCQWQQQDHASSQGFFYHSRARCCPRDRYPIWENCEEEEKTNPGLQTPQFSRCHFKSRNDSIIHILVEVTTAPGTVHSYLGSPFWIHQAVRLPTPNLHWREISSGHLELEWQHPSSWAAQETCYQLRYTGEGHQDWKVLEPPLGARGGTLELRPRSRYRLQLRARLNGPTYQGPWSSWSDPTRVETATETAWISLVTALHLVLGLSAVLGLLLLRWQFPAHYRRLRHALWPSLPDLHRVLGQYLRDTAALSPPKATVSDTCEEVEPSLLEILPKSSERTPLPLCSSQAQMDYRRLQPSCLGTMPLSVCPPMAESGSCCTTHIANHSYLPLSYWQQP
Source text: Jurkat cell line (clone E6-1) engineered with a NFAT-dependent EGFP (or GFP) reporter gene was a gift from Dr. Arthur Weiss at University of California San Francisco and have been described to study CAR-signaling ((Wu, C Y et al., Science 350:293-302, 2015). Jurkat cells were maintained in RPMI-1640 medium supplemented with 10% FBS, penicillin and streptomycin.
The murine monoclonal antibody 161 targets human MPL (Thrombopoietin receptor o TPO-R). To generate a CAR targeting MPL but with reduced immunogenicity, sequence of the scFV fragment comprising the antigen binding domain of the murine 161 antibody was humanized. […] Jurkat-NFAT-EGFP (J-N-G) cells were stably transduced with the lentivirus encoding the humanized MPL-hu-161-2 CAR construct. The parental and CAR-expressing Jurkats were subsequently cocultured with HEL cells and induction of EGFP expression monitored by FACS analysis after 4 h.
The murine monoclonals 175 and 111 also bind human MPL. […] The experiment is repeated as in the preceding example.
The sequence of these TFP CAR constructs is shown in SEQ ID NO: 3526 to 3533. […]
Several Ab-TCR are constructed targeting MPL based on murine 161 scFV as the antigen binding domain. […] T cells expressing MPL Ab-TCRs are shown to induce lysis of HEL-GLuc cells as measured by increase in GLuc activity. […]

human MPL [2] = target: T1, human MPL; assay: NFAT-driven GFP expression and IL2 production of parental and TCR-deficient J-N-G cells exposed to HEL.92.1.7 cells; assay type: cell-based; conditions: MPL-specific TFP-expressing J-N-G cells with the corresponding TCR chain knocked out; HEL.92.1.7 co-culture
Source text: Jurkat-NFAT-GFP (J-N-G) cells (T cell lymphoma) are infected with lentiviral vectors expressing gRNAs targeting TCRα and TCRβ1/β2 constant chains and coexpressing Streptococcus Pyogenes Cas9. The exemplary gRNA target sequences for TCRα chains are given in SEQ ID NO: 7754 and 7755. The exemplary gRNA target sequences for TCRβ1/β2 chains are given in SEQ ID NO: 7756-7758. In an alternative embodiment, the TCRα and TCRβ1/β2 constant chain loci are targeting using gRNA and TALONs as described in Knipping F et al, Molecular Therapy: Methods & Clinical Development, Vol 4, 2017. J-N-G cells lacking the expression of TCRα or TCRβ1/β2 chains are purified by cell sorting using antibodies directed against TCR/CD3 complex. […] Expression of TFPs in the cells is determined by immunostaining with Protein L staining and by staining with MPL-ECD-GGSG-NLuc-AcVS fusion protein (SEQ ID NO: 4923). J-N-G parental cells show robust TFP expression on cell surface while J-N-G cells lacking TCRα or TCRβ1/β2 chains show poor to absent TFP expression. The different populations of J-N-G cells are exposed to HEL.92.1.7 target cells for 24 hours and examined for increase in NFAT-promoter driven GFP expression and IL2 production. J-N-G parental cells expressing MPL-specific TFPs show marked increase in GFP fluorescence and IL2 secretion upon co-culture with HEL.92.1.7 cells. […]

Molecule: CC[C@H](C(=O)N1CCCC[C@H]1C(=O)O[C@H](CCc1ccc(OC)c(OC)c1)c1cccc(OCC(=O)NCC(CNC(=O)COc2cccc([C@@H](CCc3ccc(OC)c(OC)c3)OC(=O)[C@@H]3CCCCN3C(=O)[C@@H](CC)c3cc(OC)c(OC)c(OC)c3)c2)CN(C)C)c1)c1cc(OC)c(OC)c(OC)c1 [AP20187]
expansion of CAR-T cells in vivo (RAJI-Luc cells): promote the expansion of CAR-T cells

EGFP expression (human MPL [1]): increase in EGFP expression
B1: MPL-hu-161-2: 2nd generation CAR (41BB, CD3z) with humanized 161 scFv hu-161-2 targeting human MPL (protein)
chain: MALPVTALLLPLALLLHAARPDVVMTQSPSSLSASVGDRVTITCMASEDIYIRLAWYQQKPGNAPKLLIYAATSLETGVPSRFSGSGSGTDFTLTISSLQPEDFATYYCQQYWSSPWTFGGGTKVEIKGGGGSGGGGSGGGGSQVQLQESGPGLVKPSQTLSLTCTVSGYSITSDYTWNWIRQPPGNGLEWIGYITYSGSTSYNPSLKSRVLISVDTSKNQVSLKLSSVTAADTAVYYCARLGRRYTMDYWGQGTTVTVSSTREQKLISEEDLAKPTTTPAPRPPTPAPTIASQPLSLRPEACRPAAGGAVHTRGLDFACDIYIWAPLAGTCGVLLLSLVITLYCKRGRKKLLYIFKQPFMRPVQTTQEEDGCSCRFPEEEEGGCELRVKFSRSADAPAYQQGQNQLYNELNLGRREEYDVLDKRRGRDPEMGGKPRRKNPQEGLYNELQKDKMAEAYSEIGMKGERRRGKGHDGLYQGLSTATKDTYDALHMQALPPRSSGSGEGRGSLLTCGDVEENPGPHMTEYKPTVRLATRDDVPRAVRTLAAAFADYPATRHTVDPDRHIERVTELQELFLTRVGLDIGKVWVADDGAAVAVWTTPESVEAGAVFAEIGPRMAELSGSRLAAQQQMEGLLAPHRPKEPAWFLATVGVSPDHQGKGLGSAVVLPGVEAAERAGVPAFLETSAPRNLPFYERLGFTVTADVEVPEGPRTWCMTRKPGA
modifications: Synthetic Polynucleotide encoding a CAR with optional accessory module(s)

B2: IgSP-[hTRBC-opt2]: codon optimized TCRβ constant chain with signal peptide (protein)
chain: MDWIWRILFLVGAATGAHSFEGGTREDLKNVFPPEVAVFEPSEAEISHTQKATLVCLATGFYPDHVELSWWVNGKEVHSGVSTDPQPLKEQPALNDSRYCLSSRLRVSATFWQNPRNHFRCQVQFYGLSENDEWTQDRAKPVTQIVSAEAWGRADCGFTSESYQQGVLSATILYEILLGKATLYAVLVSALVLMAMVKRKDSRG
TFP surface expression, GFP expression and IL2 secretion after expression of the constant chain (human MPL [2]): increased expression of TFP on the cell surface and induction of GFP expression and IL2 secretion

B3: IgSP-[hTRAC-opt2]: codon optimized TCRα constant chain with signal peptide (protein)
chain: MDWIWRILFLVGAATGAHSFEGGTRFEGGLEIQNPDPAVYQLRDSKSSDKSVCLFTDFDSQTNVSQSKDSDVYITDKTVLDMRSMDFKSNSAVAWSNKSDFACANAFNNSIIPEDTFFPSPESSCDVKLVEKSFETDTNLNFQNLSVIGFRILLLKVAGFNLLMTLRLWSS
TFP surface expression, GFP expression and IL2 secretion after expression of the constant chain (human MPL [2]): increased expression of TFP on the cell surface and induction of GFP expression and IL2 secretion
